Assay [1] deals with T1, human TNFα (human, UniProt P01375 77-233).
T1 construct: Coated as recombinant protein in the EIA
Nature of the assay: EIA, recombinant protein coated at 1 µg/mL. On the procedure:
(§1) Enzyme immunoassays (EIAs) were used to test hybridoma cell supernatants for the presence of murine anti-LTα Mabs. Briefly, plates were coated with rhuLTα at 10 μg/mL in PBS overnight. After washing in 0.15 M saline containing 0.02% (v/v) Tween 20, the wells were blocked with 1% (w/v) BSA in PBS for 1 hour at RT. Undiluted hybridoma supernatants were incubated on the plates for one hour at 37° C. The plates were washed and probed with HRP-conjugated goat anti-mouse IgG Fc specific antibody for one hour at 37° C. The plates were again washed and citrate-phosphate substrate solution (0.1 M citric acid and 0.2 M sodium phosphate, 0.01% H₂O₂ and 1 mg/mL OPD) was added for 15 minutes at RT. Stop solution (4N sulfuric acid) was then added and the OD's were read at 490 nm using an automated plate spectrophotometer. The anti-human LTα Mabs were assessed for their ability to cross-react with murine LTα or human TNFα. The recombinant proteins were coated on EIA plates at 1 μg/mL in the same manner described above. Purified Mabs were incubated on the plates in serial dilutions starting at […] for 1 hour at 37° C. The plates were washed, probed and processed as above. […] Eight different hybridoma clones that secrete a murine IgG1 κ Mab specifically binds to rhuLTα.

The target in assay [2] is T2, murine LTα (murine, UniProt P09225 34-202, limits assumed).
T2 construct: Coated as recombinant protein in the EIA; used as 'murine LTα lysates' in the WEHI assay; also called murine LTα lysates
T2 sequence (looked up): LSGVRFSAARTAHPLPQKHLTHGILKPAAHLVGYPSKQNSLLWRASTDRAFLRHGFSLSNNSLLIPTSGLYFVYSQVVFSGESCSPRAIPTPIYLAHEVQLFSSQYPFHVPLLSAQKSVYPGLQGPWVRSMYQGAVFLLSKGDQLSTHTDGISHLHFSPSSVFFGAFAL
Nature of the assay: EIA, recombinant protein coated at 1 µg/mL. On the procedure: as §1

Assay [3] addresses T3, recombinant human lymphotoxin alpha (rhuLTα) (human, UniProt P01374 35-205).
T3 sequence (looked up): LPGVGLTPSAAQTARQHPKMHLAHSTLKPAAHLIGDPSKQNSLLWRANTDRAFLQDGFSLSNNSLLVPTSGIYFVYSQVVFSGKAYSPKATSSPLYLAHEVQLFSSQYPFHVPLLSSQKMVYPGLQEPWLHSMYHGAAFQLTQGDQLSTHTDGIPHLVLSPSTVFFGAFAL
Put plainly: cell-based or functional assay.

For assay [4], the target named is T3, recombinant human lymphotoxin alpha …. Nature of the assay: SPR; Mab captured on immobilized anti-murine Fc antibody, rhuLTα in solution. On the procedure:
The affinity of anti-human LTα Mabs for rhuLTα was determined using surface plasmon resonance technology. The murine Mabs were first captured on chips that contained immobilized polyclonal anti-murine Fc antibody. Buffer containing rhuLTα was then passed over the captured Mab molecules and the resulting change in the mass bound over time was recorded.

One molecule from patent US20050266004A1 (published 2005) can be followed below.

T1 sequence (P01375 77-233 limits assumed): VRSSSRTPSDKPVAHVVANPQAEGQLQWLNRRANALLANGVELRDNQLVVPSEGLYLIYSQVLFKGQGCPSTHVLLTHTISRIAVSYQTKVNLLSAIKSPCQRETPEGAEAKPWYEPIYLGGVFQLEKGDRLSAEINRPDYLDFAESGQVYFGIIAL

B1: murine anti-human LTα Mab 4 (antibody, V domains shown)
VH: PGLVAPAQSLSITCTVSGFSLTSYGVHWVRQPPGKGLEWLGVIWAGGNTNYNSPLMSRLRIIKDNSKSQVFLKMNSLQADDTAMYYCVSHDVNNPFGYWGQGTLVTVSA
VL: DIQMTQTTSSLSASLGDRVTISCRASQDITNYLNWYQQKPDGTVKLLIYYTSRLHSGVPSRFSGSGSGTDYSLTISNLEQEDIATYFCQQGNTLPYTFGGGTRLEIK
notes: Tested as the murine IgG1 kappa hybridoma Mab; also called Mab number 4
Usually Kd stands for the concentration at which binding is half-saturated. For B1, the binding result in assay [1] is listed as “no binding (tested: serial dilutions starting at 25 µg/nL)”. Besides, in assay [2], the binding result was “no binding (tested: serial dilutions starting at 25 µg/nL)”. In assay [3], the “IC50, inhibition of LTα-mediated WEHI 164 cell cytotoxicity, rhuLTα at 10 ng/mL” value is 6.2 µg/mL; the “IC50, inhibition of WEHI 164 cell cytotoxicity, rhuLTα at 0.1 ng/mL” value is 0.54 µg/mL; the “normalized molar ratio of Mab to rhuLTα at the IC50 value, rhuLTα at 0.1 ng/mL” value is 1800 molar ratio Mab:rhuLTα. The Kd in assay [4] was determined as 1.1 nM.
